Results as given in PMC11130540, “Does Acinetobacter calcoaceticus glucose dehydrogenase produce self-damaging H2O2?” (Bioscience Reports, 2024).

B1: soluble glucose dehydrogenase (sGDH) from Acinetobacter calcoaceticus, wild-type, holo form (enzyme, UniProt P13650 25-478, looked up)
chain: DVPLTPSQFAKAKSENFDKKVILSNLNKPHALLWGPDNQIWLTERATGKILRVNPESGSVKTVFQVPEIVNDADGQNGLLGFAFHPDFKNNPYIYISGTFKNPKSTDKELPNQTIIRRYTYNKSTDTLEKPVDLLAGLPSSKDHQSGRLVIGPDQKIYYTIGDQGRNQLAYLFLPNQAQHTPTQQELNGKDYHTYMGKVLRLNLDGSIPKDNPSFNGVVSHIYTLGHRNPQGLAFTPNGKLLQSEQGPNSDDEINLIVKGGNYGWPNVAGYKDDSGYAYANYSAAANKSIKDLAQNGVKVAAGVPVTKESEWTGKNFVPPLKTLYTVQDTYNYNDPTCGEMTYICWPTVAPSSAYVYKGGKKAITGWENTLLVPSLKRGVIFRIKLDPTYSTTYDDAVPMFKSNNRYRDVIASPDGNVLYVLTDTAGNVQKDDGSVTNTLENPGSLIKFTYKAK
notes: soluble glucose dehydrogenase (sGDH) of Acinetobacter calcoaceticus, UniProt P13650; native open reading frame on plasmid pGP492; printed number + 24 in P13650; Holo enzyme with the prosthetic group PQQ (found cleaved in the crystals) and calcium ions; No tag is named; also called sGDH WT; WT
B2: soluble glucose dehydrogenase (sGDH) from Acinetobacter calcoaceticus, D143E/Y343F mutant, holo form (enzyme)
chain: DVPLTPSQFAKAKSENFDKKVILSNLNKPHALLWGPDNQIWLTERATGKILRVNPESGSVKTVFQVPEIVNDADGQNGLLGFAFHPDFKNNPYIYISGTFKNPKSTDKELPNQTIIRRYTYNKSTDTLEKPVDLLAGLPSSKEHQSGRLVIGPDQKIYYTIGDQGRNQLAYLFLPNQAQHTPTQQELNGKDYHTYMGKVLRLNLDGSIPKDNPSFNGVVSHIYTLGHRNPQGLAFTPNGKLLQSEQGPNSDDEINLIVKGGNYGWPNVAGYKDDSGYAYANYSAAANKSIKDLAQNGVKVAAGVPVTKESEWTGKNFVPPLKTLYTVQDTYNYNDPTCGEMTFICWPTVAPSSAYVYKGGKKAITGWENTLLVPSLKRGVIFRIKLDPTYSTTYDDAVPMFKSNNRYRDVIASPDGNVLYVLTDTAGNVQKDDGSVTNTLENPGSLIKFTYKAK
notes: soluble glucose dehydrogenase (sGDH) of Acinetobacter calcoaceticus, UniProt P13650, with D143E and Y343F; Holo enzyme with PQQ (found cleaved in the crystals) and calcium ions; No tag is named; also called sGDH D143E/Y343F; Y343F/D143E
B3: soluble glucose dehydrogenase (sGDH) from Acinetobacter calcoaceticus, Y343F mutant, holo form (enzyme)
chain: DVPLTPSQFAKAKSENFDKKVILSNLNKPHALLWGPDNQIWLTERATGKILRVNPESGSVKTVFQVPEIVNDADGQNGLLGFAFHPDFKNNPYIYISGTFKNPKSTDKELPNQTIIRRYTYNKSTDTLEKPVDLLAGLPSSKDHQSGRLVIGPDQKIYYTIGDQGRNQLAYLFLPNQAQHTPTQQELNGKDYHTYMGKVLRLNLDGSIPKDNPSFNGVVSHIYTLGHRNPQGLAFTPNGKLLQSEQGPNSDDEINLIVKGGNYGWPNVAGYKDDSGYAYANYSAAANKSIKDLAQNGVKVAAGVPVTKESEWTGKNFVPPLKTLYTVQDTYNYNDPTCGEMTFICWPTVAPSSAYVYKGGKKAITGWENTLLVPSLKRGVIFRIKLDPTYSTTYDDAVPMFKSNNRYRDVIASPDGNVLYVLTDTAGNVQKDDGSVTNTLENPGSLIKFTYKAK
notes: soluble glucose dehydrogenase (sGDH) of Acinetobacter calcoaceticus, UniProt P13650, with Y343F; Holo enzyme with PQQ (found cleaved in the crystals) and calcium ions; No tag is named; also called sGDH Y343F; single mutant

Molecular target: the molecule itself
Experiment: crystal structure; holo-sGDH (around 10 mg/ml) reconstituted with PQQ before crystallization; hanging drop vapor diffusion at 20°C, 20% (w/v) PEG 6000, 100 mM TRIS pH 8.0, with 2 mM zinc chloride (wild-type) or 200 mM lithium chloride (mutants); two monomers in the asymmetric unit

Q: B1 was tested. Which “stoichiometry N” value did it give?
A: 2

Q: With B2 as the protein, how does the “stoichiometry N” value read?
A: 2

Q: Which “stoichiometry N” value does the source give for B3 here?
A: 2
